From paper PMC9439264 (Nature Communications, 2022)

Key:
[1] = target: T1, HA ectodomain of A/California/04/2009 (H1N1), recombinant (Influenza A virus A/California/04/2009 …, strain); assay: SEC; settings: both partners purified
T1 construct: source: baculovirus (pAcGP67B), H5 insect cells, supernatant purified with Ni-NTA

[2] = target: T2, HAhr^CA (head region of CA4/2009 HA, degraded HA monomer in the crystal) (Influenza A virus A/California/04/2009 …, strain); assay: crystal structure; settings: both partners purified
T2 chain: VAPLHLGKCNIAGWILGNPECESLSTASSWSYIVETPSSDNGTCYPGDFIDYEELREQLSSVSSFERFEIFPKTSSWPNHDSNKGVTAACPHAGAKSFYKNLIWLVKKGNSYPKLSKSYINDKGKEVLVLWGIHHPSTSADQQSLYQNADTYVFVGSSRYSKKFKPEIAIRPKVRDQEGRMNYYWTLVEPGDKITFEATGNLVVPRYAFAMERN

B1: 12H5 Fab (mouse antibody) (Fab, V domains shown)
VH: QIQLVQSGPELKKPGETVRISCKASGYTFTKNGMNWVQQAPGKGLKWVGWINTYTGEPSYADDFKGRFAFSLETSASTAYLQINNLKNEDMAAYFCARMVRDAMDFWGQGTSVTVSS
VL: DIVLTQSPASLAVSLGQRATISCKASQSVDFDGYNYLNWYQQKPGQPPKLLIYAASNLESGIPARFSGSGSGTDFTLNIHPVEEEDAATYFCQQSNEDPYTFGGGTKLEIK
notes: source: papain digestion of mAb 12H5 (mouse ascites, protein A), purified with DEAE-5PW
binding result [1]: binds | binding result [2]: binds
